Paper PMC11117473 (2024)
Ends that are not written are not given here.

Tests used:
Assay in all cases: fluorescence polarization
NCOA1 NR2 peptide [1] = target: T1, NCOA1 NR2 peptide (Homo sapiens)
T1 chain: Fluorescein-LTARHKILHRLLQEGSPSD

NCOA1 NR2 peptide [2] = target: T2, NCOA1 NR2 peptide (Homo sapiens)
T2 chain: Fluorescein-LTARHKILHRLLQEGSPSD

NCOA1 NR2 peptide [3] = target: T3, NCOA1 NR2 peptide (Homo sapiens)
T3 chain: Fluorescein-LTARHKILHRLLQEGSPSD

B1: VDR LBD 156-453 (protein)
chain: LSDEQMQIINSLVEAHHKTYDDSYSDFVRFRPPVREGPVTRSASRAASLHSLSDASSDSFNHSPESVDTKLNFSNLLMMYQDSGSPDSSEEDQQSRLSMLPHLADLVSYSIQKVIGFAKMIPGFRDLTAEDQIALLKSSAIEIIMLRSNQSFSLEDMSWSCGGPDFKYCINDVTKAGHTLELLEPLVKFQVGLKKLKLHEEEHVLLMAICLLSPDRPGVQDHVRIEALQDRLCDVLQAYIRIQHPGGRLLYAKMIQKLADLRSLNEEHSKQYRSLSFQPEHSMQLTPLVLEVFGSEVS
B1 gave a Kd (NCOA1 NR2 peptide [1]) of 540 nM, a Kd (NCOA1 NR2 peptide [2]) of 480 nM and a Kd (NCOA1 NR2 peptide [3]) of 500 nM.
